# Results as given in publication PMC9482650, “Quantitative fragmentomics allow affinity mapping of interactomes” (Nature Communications, 2022).
# T1: CARD11, Q9BXL7
# T1 sequence (Q9BXL7 662-765, limits assumed, looked up): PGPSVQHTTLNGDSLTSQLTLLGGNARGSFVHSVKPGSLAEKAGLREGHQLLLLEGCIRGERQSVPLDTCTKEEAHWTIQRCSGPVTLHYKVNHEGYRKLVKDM
# T2: DFNB31_2, Q9P202
# T2 sequence (Q9P202 274-371, limits assumed, looked up): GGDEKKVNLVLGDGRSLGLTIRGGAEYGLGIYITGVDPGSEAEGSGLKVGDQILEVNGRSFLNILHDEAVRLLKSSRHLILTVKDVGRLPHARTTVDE
# T3: DFNB31_3, Q9P202
# T3 sequence (Q9P202 811-907, limits assumed, looked up): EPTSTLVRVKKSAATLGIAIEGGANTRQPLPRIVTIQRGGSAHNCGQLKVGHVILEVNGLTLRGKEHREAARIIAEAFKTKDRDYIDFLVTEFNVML
# T4: LIN7A, O14910
# T4 sequence (O14910 103-200, limits assumed, looked up): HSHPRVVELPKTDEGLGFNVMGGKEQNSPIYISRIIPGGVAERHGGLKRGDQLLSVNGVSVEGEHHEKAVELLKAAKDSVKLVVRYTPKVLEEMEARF
# T5: MPDZ_5, O75970
# T5 sequence (O75970 695-796, limits assumed, looked up): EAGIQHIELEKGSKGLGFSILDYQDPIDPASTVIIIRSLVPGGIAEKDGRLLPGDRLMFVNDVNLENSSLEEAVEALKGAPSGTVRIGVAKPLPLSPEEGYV
# T6: MPP6, Q9NZW5
# T6 sequence (Q9NZW5 125-219, limits assumed, looked up): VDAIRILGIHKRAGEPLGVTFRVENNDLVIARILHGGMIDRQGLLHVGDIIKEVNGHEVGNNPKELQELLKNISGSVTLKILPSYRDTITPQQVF
# T7: NHERF3_1, Q5T2W1
# T7 sequence (Q5T2W1 4-100, limits assumed, looked up): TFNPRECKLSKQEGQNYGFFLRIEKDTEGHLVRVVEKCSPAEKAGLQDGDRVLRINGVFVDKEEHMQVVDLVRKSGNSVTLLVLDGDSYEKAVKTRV
# T8: NHERF3_4, Q5T2W1
# T8 sequence (Q5T2W1 373-468, limits assumed, looked up): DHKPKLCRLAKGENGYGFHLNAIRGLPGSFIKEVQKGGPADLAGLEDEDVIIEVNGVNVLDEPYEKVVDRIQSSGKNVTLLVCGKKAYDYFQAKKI
# T9: PCLO, Q9Y6V0
# T9 sequence (Q9Y6V0 4491-4600, limits assumed, looked up): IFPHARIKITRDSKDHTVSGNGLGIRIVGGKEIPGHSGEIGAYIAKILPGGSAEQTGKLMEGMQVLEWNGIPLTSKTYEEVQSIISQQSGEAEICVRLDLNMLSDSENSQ
# T10: PDZD2_2, O15018
# T10 sequence (O15018 329-429, limits assumed, looked up): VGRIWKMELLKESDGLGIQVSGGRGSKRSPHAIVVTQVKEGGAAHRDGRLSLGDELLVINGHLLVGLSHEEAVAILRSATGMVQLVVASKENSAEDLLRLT
# T11: SIPA1L2, Q9P2F8
# T11 sequence (Q9P2F8 945-1036, limits assumed, looked up): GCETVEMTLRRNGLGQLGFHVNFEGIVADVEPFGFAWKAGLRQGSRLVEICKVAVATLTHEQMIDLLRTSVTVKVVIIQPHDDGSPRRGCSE
# T12: SNTA1, Q13424
# T12 sequence (Q13424 82-180, limits assumed, looked up): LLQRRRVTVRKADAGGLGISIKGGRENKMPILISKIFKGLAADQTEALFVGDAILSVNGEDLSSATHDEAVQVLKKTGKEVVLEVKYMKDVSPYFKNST
# Target: T1, CARD11, Q9BXL7
# Experiment: holdup assay
# Set-up: key: below the threshold = too weak to quantify, mostly under pKd 3.1 to 4
# Conditions: plain residues with an end cap or a label only (N-terminal biotin on a linker: ado-ado)
row,Binder,pKd
1,"SKENVQETQI [LRRC4B, Q9NT99]",below the threshold

# Target: T2, DFNB31_2, Q9P202
# Experiment: holdup assay
# Set-up: key: below the threshold = too weak to quantify, mostly under pKd 3.1 to 4
# Conditions: plain residues with an end cap or a label only (N-terminal biotin on a linker: ado-ado)
row,Binder,pKd
1,"SKENVQETQI [LRRC4B, Q9NT99]",below the threshold

# Target: T3, DFNB31_3, Q9P202
# Experiment: holdup assay
# Set-up: key: below the threshold = too weak to quantify, mostly under pKd 3.1 to 4
# Conditions: plain residues with an end cap or a label only (N-terminal biotin on a linker: ado-ado)
row,Binder,pKd
1,"SKENVQETQI [LRRC4B, Q9NT99]",3.47

# Target: DLG1_1, Q12959
# Experiment: holdup assay
# Set-up: key: below the threshold = too weak to quantify, mostly under pKd 3.1 to 4
# Conditions: plain residues with an end cap or a label only (N-terminal biotin on a linker: ado-ado)
row,Binder,pKd
1,"SKENVQETQI [LRRC4B, Q9NT99]",4.23

# Target: DLG1_2, Q12959
# Experiment: holdup assay
# Set-up: key: below the threshold = too weak to quantify, mostly under pKd 3.1 to 4
# Conditions: plain residues with an end cap or a label only (N-terminal biotin on a linker: ado-ado)
row,Binder,pKd
1,"SKENVQETQI [LRRC4B, Q9NT99]",4.64

# Target: DLG2_3, Q15700
# Experiment: holdup assay
# Set-up: key: below the threshold = too weak to quantify, mostly under pKd 3.1 to 4
# Conditions: plain residues with an end cap or a label only (N-terminal biotin on a linker: ado-ado)
row,Binder,pKd
1,"SKENVQETQI [LRRC4B, Q9NT99]",4.17

# Target: FRMPD2_2, Q68DX3
# Sequence (Q68DX3 944-1038): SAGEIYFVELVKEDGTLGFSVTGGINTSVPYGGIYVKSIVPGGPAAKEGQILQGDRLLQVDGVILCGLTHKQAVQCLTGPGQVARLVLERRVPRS
# Experiment: holdup assay
# Set-up: key: below the threshold = too weak to quantify, mostly under pKd 3.1 to 4
# Conditions: plain residues with an end cap or a label only (N-terminal biotin on a linker: ado-ado)
row,Binder,pKd
1,"SKENVQETQI [LRRC4B, Q9NT99]",3.92

# Target: FRMPD2_3, Q68DX3
# Sequence (Q68DX3 1073-1166): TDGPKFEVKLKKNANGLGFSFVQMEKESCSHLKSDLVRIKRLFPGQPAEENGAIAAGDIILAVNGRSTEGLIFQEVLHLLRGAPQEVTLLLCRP
# Experiment: holdup assay
# Set-up: key: below the threshold = too weak to quantify, mostly under pKd 3.1 to 4
# Conditions: plain residues with an end cap or a label only (N-terminal biotin on a linker: ado-ado)
row,Binder,pKd
1,"SKENVQETQI [LRRC4B, Q9NT99]",below the threshold

# Target: GIPC2, Q8TF65
# Sequence (Q8TF65 112-203): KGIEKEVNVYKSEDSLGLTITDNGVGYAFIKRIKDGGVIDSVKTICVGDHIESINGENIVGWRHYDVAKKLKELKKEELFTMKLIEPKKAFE
# Experiment: holdup assay
# Set-up: key: below the threshold = too weak to quantify, mostly under pKd 3.1 to 4
# Conditions: plain residues with an end cap or a label only (N-terminal biotin on a linker: ado-ado)
row,Binder,pKd
1,"SKENVQETQI [LRRC4B, Q9NT99]",below the threshold

# Target: GRASP, Q7Z6J2
# Sequence (Q7Z6J2 96-193): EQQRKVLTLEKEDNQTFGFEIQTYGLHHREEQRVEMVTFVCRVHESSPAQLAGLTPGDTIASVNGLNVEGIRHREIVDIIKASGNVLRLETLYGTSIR
# Experiment: holdup assay
# Set-up: key: below the threshold = too weak to quantify, mostly under pKd 3.1 to 4
# Conditions: plain residues with an end cap or a label only (N-terminal biotin on a linker: ado-ado)
row,Binder,pKd
1,"SKENVQETQI [LRRC4B, Q9NT99]",below the threshold

# Target: GRID2IP_2, A4D2P6
# Sequence (A4D2P6 272-370): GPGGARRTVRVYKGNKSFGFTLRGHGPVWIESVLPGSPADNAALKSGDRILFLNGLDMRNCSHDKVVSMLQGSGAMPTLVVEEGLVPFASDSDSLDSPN
# Experiment: holdup assay
# Set-up: key: below the threshold = too weak to quantify, mostly under pKd 3.1 to 4
# Conditions: plain residues with an end cap or a label only (N-terminal biotin on a linker: ado-ado)
row,Binder,pKd
1,"SKENVQETQI [LRRC4B, Q9NT99]",3.86

# Target: GRIP2_5, Q9C0E4
# Sequence (Q9C0E4 544-642): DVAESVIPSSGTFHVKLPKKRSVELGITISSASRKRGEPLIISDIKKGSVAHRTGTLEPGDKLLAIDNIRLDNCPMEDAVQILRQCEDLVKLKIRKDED
# Experiment: holdup assay
# Set-up: key: below the threshold = too weak to quantify, mostly under pKd 3.1 to 4
# Conditions: plain residues with an end cap or a label only (N-terminal biotin on a linker: ado-ado)
row,Binder,pKd
1,"SKENVQETQI [LRRC4B, Q9NT99]",below the threshold

# Target: GRIP2_6, Q9C0E4
# Sequence (Q9C0E4 648-740): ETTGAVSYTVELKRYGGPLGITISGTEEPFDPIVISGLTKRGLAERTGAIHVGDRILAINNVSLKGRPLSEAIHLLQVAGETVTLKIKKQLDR
# Experiment: holdup assay
# Set-up: key: below the threshold = too weak to quantify, mostly under pKd 3.1 to 4
# Conditions: plain residues with an end cap or a label only (N-terminal biotin on a linker: ado-ado)
row,Binder,pKd
1,"SKENVQETQI [LRRC4B, Q9NT99]",below the threshold

# Target: IL16_3, Q14005
# Sequence (Q14005 1107-1207): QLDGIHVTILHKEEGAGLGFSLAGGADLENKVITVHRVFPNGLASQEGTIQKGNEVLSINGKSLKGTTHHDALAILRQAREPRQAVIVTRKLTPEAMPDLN
# Experiment: holdup assay
# Set-up: key: below the threshold = too weak to quantify, mostly under pKd 3.1 to 4
# Conditions: plain residues with an end cap or a label only (N-terminal biotin on a linker: ado-ado)
row,Binder,pKd
1,"SKENVQETQI [LRRC4B, Q9NT99]",below the threshold

# Target: T4, LIN7A, O14910
# Experiment: holdup assay
# Set-up: key: below the threshold = too weak to quantify, mostly under pKd 3.1 to 4
# Conditions: plain residues with an end cap or a label only (N-terminal biotin on a linker: ado-ado)
row,Binder,pKd
1,"SKENVQETQI [LRRC4B, Q9NT99]",below the threshold

# Target: MAGI2_2, Q86UL8
# Sequence (Q86UL8 410-522): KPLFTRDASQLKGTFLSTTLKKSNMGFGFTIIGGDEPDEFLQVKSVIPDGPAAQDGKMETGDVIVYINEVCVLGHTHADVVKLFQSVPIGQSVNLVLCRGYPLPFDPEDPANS
# Experiment: holdup assay
# Set-up: key: below the threshold = too weak to quantify, mostly under pKd 3.1 to 4
# Conditions: plain residues with an end cap or a label only (N-terminal biotin on a linker: ado-ado)
row,Binder,pKd
1,"SKENVQETQI [LRRC4B, Q9NT99]",below the threshold

# Target: MAST1, Q9Y2H9
# Sequence (Q9Y2H9 962-1065): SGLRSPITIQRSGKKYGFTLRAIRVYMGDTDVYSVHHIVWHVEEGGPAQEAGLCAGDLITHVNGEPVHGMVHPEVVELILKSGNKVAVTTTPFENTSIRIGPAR
# Experiment: holdup assay
# Set-up: key: below the threshold = too weak to quantify, mostly under pKd 3.1 to 4
# Conditions: plain residues with an end cap or a label only (N-terminal biotin on a linker: ado-ado)
row,Binder,pKd
1,"SKENVQETQI [LRRC4B, Q9NT99]",3.97

# Target: T5, MPDZ_5, O75970
# Experiment: holdup assay
# Set-up: key: below the threshold = too weak to quantify, mostly under pKd 3.1 to 4
# Conditions: plain residues with an end cap or a label only (N-terminal biotin on a linker: ado-ado)
row,Binder,pKd
1,"SKENVQETQI [LRRC4B, Q9NT99]",below the threshold

# Target: T6, MPP6, Q9NZW5
# Experiment: holdup assay
# Set-up: key: below the threshold = too weak to quantify, mostly under pKd 3.1 to 4
# Conditions: plain residues with an end cap or a label only (N-terminal biotin on a linker: ado-ado)
row,Binder,pKd
1,"SKENVQETQI [LRRC4B, Q9NT99]",below the threshold

# Target: NHERF2_2, Q15599
# Sequence (Q15599 142-238): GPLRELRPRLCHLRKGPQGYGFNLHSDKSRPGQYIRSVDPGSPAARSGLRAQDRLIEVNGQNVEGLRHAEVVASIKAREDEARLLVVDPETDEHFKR
# Experiment: holdup assay
# Set-up: key: below the threshold = too weak to quantify, mostly under pKd 3.1 to 4
# Conditions: plain residues with an end cap or a label only (N-terminal biotin on a linker: ado-ado)
row,Binder,pKd
1,"SKENVQETQI [LRRC4B, Q9NT99]",3.88

# Target: T7, NHERF3_1, Q5T2W1
# Experiment: holdup assay
# Set-up: key: below the threshold = too weak to quantify, mostly under pKd 3.1 to 4
# Conditions: plain residues with an end cap or a label only (N-terminal biotin on a linker: ado-ado)
row,Binder,pKd
1,"SKENVQETQI [LRRC4B, Q9NT99]",5.07

# Target: T8, NHERF3_4, Q5T2W1
# Experiment: holdup assay
# Set-up: key: below the threshold = too weak to quantify, mostly under pKd 3.1 to 4
# Conditions: plain residues with an end cap or a label only (N-terminal biotin on a linker: ado-ado)
row,Binder,pKd
1,"SKENVQETQI [LRRC4B, Q9NT99]",below the threshold

# Target: T9, PCLO, Q9Y6V0
# Experiment: holdup assay
# Set-up: key: below the threshold = too weak to quantify, mostly under pKd 3.1 to 4
# Conditions: plain residues with an end cap or a label only (N-terminal biotin on a linker: ado-ado)
row,Binder,pKd
1,"SKENVQETQI [LRRC4B, Q9NT99]",below the threshold

# Target: T10, PDZD2_2, O15018
# Experiment: holdup assay
# Set-up: key: below the threshold = too weak to quantify, mostly under pKd 3.1 to 4
# Conditions: plain residues with an end cap or a label only (N-terminal biotin on a linker: ado-ado)
row,Binder,pKd
1,"SKENVQETQI [LRRC4B, Q9NT99]",3.97

# Target: T11, SIPA1L2, Q9P2F8
# Experiment: holdup assay
# Set-up: key: below the threshold = too weak to quantify, mostly under pKd 3.1 to 4
# Conditions: plain residues with an end cap or a label only (N-terminal biotin on a linker: ado-ado)
row,Binder,pKd
1,"SKENVQETQI [LRRC4B, Q9NT99]",below the threshold

# Target: T12, SNTA1, Q13424
# Experiment: holdup assay
# Set-up: key: below the threshold = too weak to quantify, mostly under pKd 3.1 to 4
# Conditions: plain residues with an end cap or a label only (N-terminal biotin on a linker: ado-ado)
row,Binder,pKd
1,"SKENVQETQI [LRRC4B, Q9NT99]",4.77
